Laboratory results as given in the supplement of paper PMC9170038.

Test system: MS2 coat protein
Experiment: apparent KD of MS2 coat protein; designed switch direction (-1 OFF switch, 1 ON switch): -1; higher = weaker reporter binding
How it was run: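 Designed RNA switches with common flanks were made on Illumina chips by stalled E. coli RNA polymerase. Titration with SNAP-549-labelled MS2 coat protein doubled from 0.7 or 1.5 nM up to 3 µM. Apparent KD is each design's median over clusters after curve-fitting normalised fluorescence.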

[1] = Eterna round: R95, input ligand: microRNA oligo, concentration not stated
[2] = input ligand: microRNA oligo, concentration not stated
[3] = Eterna round: R95, input ligand: FMN 200 uM
[4] = Eterna round: R95, input ligand: none

| Sequence | apparent KD of MS2 coat protein [1] [nM] | apparent KD of MS2 coat protein (input ligand: FMN 200 uM) [nM] | apparent KD of MS2 coat protein (input ligand: none) [nM] | other results |
| --- | --- | --- | --- | --- |
| UUUUAACAUGAGGAUCACCCAUGUGAGGAUAUCGAAAUUUAUAUUAAUAUUUAUAUUACGAGAAGGCACAUUUU [JMF 58] (puzzle: Exclusion 1) | 75.9 | – | – | – |
| AGAUGCUCGAGUCGACAUGAGGAUCACCCAUGUACAGUUAGUGAGGAUAUCUGAGACACAUAGUAGGAGAAGGCGCGAACAUGA [Ex NG3 #13] (Eterna round: R96, puzzle: Exclusion NG 3) | – | 132 | 60 | apparent KD of MS2 coat protein [2]: 43.4 nM |
| CAGCCUUGAGUUAGGAUAUGCGAUCGUGUAGACGAGCAGAAGGGACAUGAGGAUCACCCAUGUGAAAUAAUUAA [Begeti] (puzzle: Brourd's mod of Exclusion 4) | 13.2 | – | – | apparent KD of MS2 coat protein [3]: 18.3 nM; apparent KD of MS2 coat protein [4]: 13.4 nM |
| UAACAGCAAGGAUAUACGGGCUGUGCUUUUCAUUUCUUACAACAUGAGGAUCACCCAUGUAGAAGGUGCAACAA [Ex2 #6] (Eterna round: R97, puzzle: Exclusion 2) | – | 54.4 | 24.8 | – |
| UCGGCGCGAGGAUAUGCGGCUUGUGCUUCGGGCCCUCGCGUACAUGAGGAUCACCCAUGUAGAAGGCGCGCCGC [Apr-15 SS2-44] (puzzle: Exclusion 2) | 53.8 | – | – | – |
| GAUUGAGAAGGAUAUACAUGAGGAUCACCCAUGUGCUUCAGCUAGGAGACUAGCAUUGGUAGAAGGUCUUAAUC [Mod of lroppy 15 - Jieux - Exclusion 3] (Eterna round: R97, puzzle: Exclusion 3) | – | 69.7 | 19.2 | – |
| CCCACAAGCUUUUUGCUCGACAUGAGGAUCACCCAUGUAAAAUGGGUAAAUUUAAAUUUAAAUUUAUUUAAAUUGGG [-18.1, -41.9 kcal, A 34%] (Eterna round: R97, puzzle: Sensor, turn-off variant 1) | – | 80.9 | 102 | – |
| UGUUGUUACGCAGGAUAUGUAUGAGGAUCACCCAUUAAUAAAUUUUAACCACGAGGAUCACCCGUGUAGAAGGGCGGGUUAACA [pwkr exNG2 2xF5 1xFMN.13] (Eterna round: R96, puzzle: Exclusion NG 2) | – | 96.3 | 105 | apparent KD of MS2 coat protein [2]: 65 nM |
| UCGCUGCGAGGAUAUACGUGCGCGCGCUCGCGUGCGCGCGUACAUGAGGAUCACCCAUGUAGAAGGCGCGCUGC [Apr-15 SS2-4] (puzzle: Exclusion 2) | 13.4 | – | – | – |
| CUUAAACAUGAGGAUCACCCAUGUGAGGAUAUGAUGCGAAUAAAGAAAGAAGAAAGCAUCAGAAGGCACAUAUG (Eterna round: R96, puzzle: Exclusion 1) | – | – | – | apparent KD of MS2 coat protein [2]: 65.9 nM |
| GCCGUUAAAGGAUAUACAUGAGGAUCACCCAUGUCGGUAUAAAAUUUACCGCCUCCCUGUAGAAGGUUAAGGCA [Xebiatorer] (puzzle: Exclusion 3) | 16.1 | – | – | – |
| CCCACAAGCUUUUUGCUCGACAUGAGGAUCACCCAUGUUGAAUGGGUUAUAUAUAUAUGAAACAUAUAUAUAUACCU [-24.7, -47.5 kcal, A 32%] (Eterna round: R97, puzzle: Sensor, turn-off variant 1) | – | 20.4 | 20.2 | – |
| CCGGCUUAGGAGGAUAUAGGAGUCGAUAGACACCUAGAAGGCCUGACAUGAGGAUCACCCAUGUGUCCUACCGG [Fiskers Ex 6 - 98] (puzzle: Exclusion 6) | 14.2 | – | – | apparent KD of MS2 coat protein [3]: 31.1 nM; apparent KD of MS2 coat protein [4]: 16.5 nM |
| GGAAAACAUGAGGAUCACCCAUGUAAGGAUAUGCAAAAGGAUAUAGAAGGAAAAAAAAGCAGAAGGUACAAAGG [salish99-ex1-21] (Eterna round: R96, puzzle: Exclusion 1) | – | – | – | apparent KD of MS2 coat protein [2]: 34 nM |
| AUGAACAAGCUUUUUGCAAACAUGAGGAUCACCCAUGUCUUAUAUCGUACCAUGCUAGGCCCUAGCAUGGUACGAUU [jl sellena mod 2] (Eterna round: R97, puzzle: Sensor, turn-off variant 1) | – | 17.6 | 14.6 | – |
| GCCGUUAAGGUAGGAUAUGCUCGGUCUGUUCGUGCAGAAGGGCUGGUCGGCGACUUGAGGAUCACCCAAGUGGUCUUAUAGAAA [Mutated MS2 EX1.19] (Eterna round: R96, puzzle: Exclusion NG 1) | – | 99.6 | 54.8 | apparent KD of MS2 coat protein [2]: 52.3 nM |
| AUUAAACGUGUAGGAUAUGCGUGGCGAAGCUAUGCAGAAGGACAUGAGGAUCACCCAUGUUCUAGCGUCUGCGUACAGAUGCUA [JL eng1 1.35 mod 5] (Eterna round: R96, puzzle: Exclusion NG 1) | – | 25.1 | 16.3 | apparent KD of MS2 coat protein [2]: 11.4 nM |
| UAAUUGAUUAAUAAAUUAUACAUGAGGAUCACCCAUGUAGAUCCUACGUGCCAUUUAAGUAGCUCGUCUUAUUAUUA [Sensor-V1 #64] (Eterna round: R97, puzzle: Sensor, turn-off variant 1) | – | 142 | 228 | – |

| Sequence | apparent KD of MS2 coat protein [1] [nM] | apparent KD of MS2 coat protein (input ligand: FMN 200 uM) [nM] | apparent KD of MS2 coat protein (input ligand: none) [nM] | other results |
| --- | --- | --- | --- | --- |
| UAGAAUCGAGGAUAUACAUGAGGAUCACCCAUGUGUGGCCAUUUGGUGUGGUCGUCAGGUAGAAGGCGAUUACA [Exclusion 3 - Mod of Jieux's Gilly Gone Silly 23 v.5] (Eterna round: R96, puzzle: Exclusion 3) | – | 173 | 412 | apparent KD of MS2 coat protein [2]: 211 nM |
| UUUACAAGCUAUUGAUCCCACAUGAGGAUCACCCAUGUUCAUGGCCGUGAGGCUAGGUAUACAAUUGCUCGUCUUAU [mod-JR] (Eterna round: R97, puzzle: Sensor, turn-off variant 1) | – | 59.8 | 78.7 | – |
| ACCUCUGCUGAGGAUAUCCUUGCGGAAGAAGGAGGAGAAGGCAGAACAUGAGGAUCACCCAUGUGGGAACAACG [Eternabot (Original) Solution 37] (Eterna round: R97, puzzle: Exclusion 6) | – | 182 | 83.8 | – |
| AGAUCACAUGAGGAUCACCCAUGUCAGGAUAUCGUCACUGGAGCUUCGGCUCCAGUGACGAGAAGGGACAUAAU [E1/2-A1] (Eterna round: R97, puzzle: Exclusion 1) | – | 161 | 554 | – |
| AAAAAGGCAGGAUAUACGAGUCAAAGAAAAGACAAAAGGAGACAUGAGGAUCACCCAUGUAGAAGGGCCAAAAA [Fiskers exclusion D2 62% 5] (Eterna round: R96, puzzle: Exclusion 2) | – | 85.2 | 25.3 | apparent KD of MS2 coat protein [2]: 20.6 nM |
| CUCCUACAUGAGGAUCACCCAUGUCAGGAUAUCUCAGUGGCGCCUAAAUGUGCCACCCAGAGAAGGGACGUGCA [Zainceve] (puzzle: Exclusion 1) | 12.3 | – | – | – |
| UCUGGAGCAGGAUAUAUAUGACGUGCUUCGGCACGGUGAGUACAUGAGGAUCACCCAUGUAGAAGGGCUCCAGA [Exclusion 2 (Mod of Brourd's E2/9-D2)] (Eterna round: R97, puzzle: Exclusion 2) | – | 81.8 | 20.3 | – |
| AACAAUAAGGAGGAUAUCGUAUCGGAAACGAUACGAGAAGGCUUAACAUGAGGAUCACCCAUGUUCUUCAAUAA [Fiskers Ex 6 - 24] (puzzle: Exclusion 6) | 17.1 | – | – | apparent KD of MS2 coat protein [3]: 19.1 nM; apparent KD of MS2 coat protein [4]: 17.7 nM |
| GUCUAGAGAGGAUAUAUUUACAGUGUACGUCGGAUGAUUGCACUUGAGGAUCACCCAAGUAGAAGGCUCGAGGG [EX2 #32] (Eterna round: R97, puzzle: Exclusion 2) | – | 457 | 303 | – |
| CGUGUCUUUCACGUGAGUGGUGGGUGCAACAGGUGGGAAACAUGAGGAUCACCCAUGUCCUCACUUGCUCGUCUUUU [Grok-var2-03] (puzzle: Sensor v3, turn-off variant 2) | 109 | – | – | apparent KD of MS2 coat protein [3]: 27.1 nM; apparent KD of MS2 coat protein [4]: 26.1 nM |
| UGAGUGCUGCGAGGAUAUACAUGAGGAUCACCCAUGUAAUCGUGUGAGCCAAAGGCUCACACGAAGUAGAAGGCGCAGUACUCU [Mat - Exclusion NG 2 - Mod of JL - D25] (Eterna round: R96, puzzle: Exclusion NG 2) | – | 12.5 | 15.2 | apparent KD of MS2 coat protein [2]: 11.1 nM |
| GGUUGGCGAGGAUAUACAUGAGGAUCACCCAUGUGAGAGAAUAAAGUGAGGAAGAAAAGUAGAAGGCGCUGACG [salish99_ex3_r3_013] (puzzle: Exclusion 3) | 42.1 | – | – | apparent KD of MS2 coat protein [3]: 1030 nM; apparent KD of MS2 coat protein [4]: 47 nM |
| GGGCUCGGAGGAUAUACAAUGGGCUCGGGAAAUCGGGCUCUACAUGAGGAUCACCCAUGUAGAAGGUCGGGCUC [-38.9, -35.6 kcal A 24%, 4,4] (Eterna round: R97, puzzle: Exclusion 2) | – | 16.4 | 14.1 | – |
| UCAGGUGCAGGAUAUACAUGAGGAUCACCCAUGUAGAUCAACCAGCGAUAGCUGGAAUGUAGAAGGGCACCUGA [E3/5-D2] (Eterna round: R97, puzzle: Exclusion 3) | – | 100 | 19.7 | – |
| AAUAAUUGUGACUUGGGUGACAUGAGGAUCACCCAUGUCACAAGCUUGUUGCUCGUCUUAUAAUUAACCCAUGUCAC [LRO Sensor-off var1-25 mod of Stov1-13-A1 by Brourd] (Eterna round: R97, puzzle: Sensor, turn-off variant 1) | – | 48.1 | 40.9 | – |
| CUUUUGUGAGGAUAUCAGUAUUAAAAAAAUAAAAUUACUACUGAGAAGGCACAUGAGGAUCACCCAUGUUCCUC [salish99_ex4_r3_032] (puzzle: Exclusion 4) | 34.4 | – | – | – |
| UUUUAACAUGAGGAUCACCCAUGUGAGGAUAUCGAAAUUUAUAUUAAUAUUAUUUAUUCGAGAAGGCACAUUUU [JMF 45] (puzzle: Exclusion 1) | 118 | – | – | – |
